From IntAct's records for PubMed 15024067 come the findings set out here.

The labels stand for the following.
B1: Serine/threonine-protein kinase RAD53 (Saccharomyces cerevisiae), P22216 (parent)
chain: MENITQPTQQSTQATQRFLIEKFSQEQIGENIVCRVICTTGQIPIRDLSADISQVLKEKRSIKKVWTFGRNPACDYHLGNISRLSNKHFQILLGEDGNLLLNDISTNGTWLNGQKVEKNSNQLLSQGDEITVGVGVESDILSLVIFINDKFKQCLEQNKVDRIRSNLKNTSKIASPGLTSSTASSMVANKTGIFKDFSIIDEVVGQGAFATVKKAIERTTGKTFAVKIISKRKVIGNMDGVTRELEVLQKLNHPRIVRLKGFYEDTESYYMVMEFVSGGDLMDFVAAHGAVGEDAGREISRQILTAIKYIHSMGISHRDLKPDNILIEQDDPVLVKITDFGLAKVQGNGSFMKTFCGTLAYVAPEVIRGKDTSVSPDEYEERNEYSSLVDMWSMGCLVYVILTGHLPFSGSTQDQLYKQIGRGSYHEGPLKDFRISEEARDFIDSLLQVDPNNRSTAAKALNHPWIKMSPLGSQSYGDFSQISLSQSLSQQKLLENMDDAQYEFVKAQRKLQMEQQLQEQDQEDQDGKIQGFKIPAHAPIRYTQPKSIEAETREQKLLHSNNTENVKSSKKKGNGRFLTLKPLPDSIIQESLEIQQGVNPFFIGRSEDCNCKIEDNRLSRVHCFIFKKRHAVGKSMYESPAQGLDDIWYCHTGTNVSYLNNNRMIQGTKFLLQDGDEIKIIWDKNNKFVIGFKVEINDTTGLFNEGLGMLQEQRVVLKQTAEEKDLVKKLTQMMAAQRANQPSASSSSMSAKKPPVSDTNNNGNNSVLNDLVESPINANTGNILKRIHSVSLSQSQIDPSKKVKRAKLDQTSKGPENLQFS
partner: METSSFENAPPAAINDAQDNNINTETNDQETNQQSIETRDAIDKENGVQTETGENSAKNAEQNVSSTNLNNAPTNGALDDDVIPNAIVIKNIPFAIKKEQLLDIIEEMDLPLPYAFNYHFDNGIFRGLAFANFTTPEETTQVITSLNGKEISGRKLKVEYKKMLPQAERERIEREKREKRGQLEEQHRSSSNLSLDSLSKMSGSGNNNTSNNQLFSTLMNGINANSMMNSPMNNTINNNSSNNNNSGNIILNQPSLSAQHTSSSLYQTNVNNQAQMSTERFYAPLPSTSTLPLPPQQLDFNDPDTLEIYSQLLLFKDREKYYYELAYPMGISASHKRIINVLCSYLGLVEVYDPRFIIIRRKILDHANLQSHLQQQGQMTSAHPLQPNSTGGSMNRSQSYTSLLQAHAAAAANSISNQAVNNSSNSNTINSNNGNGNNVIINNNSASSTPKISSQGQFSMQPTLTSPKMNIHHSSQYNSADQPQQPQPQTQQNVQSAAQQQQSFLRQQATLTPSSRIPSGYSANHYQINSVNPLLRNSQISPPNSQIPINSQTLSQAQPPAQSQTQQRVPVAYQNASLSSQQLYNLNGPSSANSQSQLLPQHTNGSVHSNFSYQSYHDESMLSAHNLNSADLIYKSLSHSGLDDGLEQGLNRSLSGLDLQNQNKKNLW
B2: RNA-binding protein PIN4 (Saccharomyces cerevisiae), P34217 (parent)
chain: B1 partner

The variants in one assay derive from B1. The conditions noted are these: with pin4_yeast PIN4, P34217.
Turning to S105T, the “effect of a mutation on the interaction” value is “disrupting interaction”.

As to N107A, the “effect of a mutation on the interaction” value was “disrupting interaction”. Turning to R70K, the “effect of a mutation on the interaction” value is given as “disrupting interaction”. On the same count and under the same terms, next, R70A: “disrupting interaction”.

In another assay the parent is B2. As to conditions: with rad53_yeast RAD53, P22216.
In the case of T305A, the “effect of a mutation on the interaction” value is listed as “disrupting interaction”.
